# Molecular target: GABAA receptor β2 subunit, FLAG-tagged (β2^FLAG) (human) (UniProt P47870)
# Experiment: co-IP
row,Substance,amount associated with β2^FLAG relative to wildtype γ2L^HA
1,"GABAA receptor γ2L(N79S) subunit, HA-tagged (γ2L(N79S)^HA)",0.94
2,"GABAA receptor γ2L(P83S) subunit, HA-tagged (γ2L(P83S)^HA)",0.71
3,"GABAA receptor γ2L(R82Q) subunit, HA-tagged (γ2L(R82Q)^HA)",0.47
